For one test, the target named is CynoCD100-HEK293 (cynomolgus monkey). In words: FACS. A general note: Flow cytometry measures light scatter and fluorescence of single cells or particles in a stream.
The target in test [1] is T1, HuCD100-Fc (in-house prepared) (human, UniProt Q92854 22-734, biotinylated in the Plexin binding and blocking assays (sites not given)). In words: ELISA; first HuCD100-Fc row. (ELISA stands for enzyme-linked immunosorbent assay.)
Test [2] addresses T2, full-length human CD100 protein HuCD100 on cells (human, UniProt Q92854 22-862). Put plainly: FACS.
Test [3] deals with T3, MusCD100-Fc (mouse, UniProt O09126 24-733, biotinylated in the Plexin binding and blocking assays (sites not given)).
T3 chain: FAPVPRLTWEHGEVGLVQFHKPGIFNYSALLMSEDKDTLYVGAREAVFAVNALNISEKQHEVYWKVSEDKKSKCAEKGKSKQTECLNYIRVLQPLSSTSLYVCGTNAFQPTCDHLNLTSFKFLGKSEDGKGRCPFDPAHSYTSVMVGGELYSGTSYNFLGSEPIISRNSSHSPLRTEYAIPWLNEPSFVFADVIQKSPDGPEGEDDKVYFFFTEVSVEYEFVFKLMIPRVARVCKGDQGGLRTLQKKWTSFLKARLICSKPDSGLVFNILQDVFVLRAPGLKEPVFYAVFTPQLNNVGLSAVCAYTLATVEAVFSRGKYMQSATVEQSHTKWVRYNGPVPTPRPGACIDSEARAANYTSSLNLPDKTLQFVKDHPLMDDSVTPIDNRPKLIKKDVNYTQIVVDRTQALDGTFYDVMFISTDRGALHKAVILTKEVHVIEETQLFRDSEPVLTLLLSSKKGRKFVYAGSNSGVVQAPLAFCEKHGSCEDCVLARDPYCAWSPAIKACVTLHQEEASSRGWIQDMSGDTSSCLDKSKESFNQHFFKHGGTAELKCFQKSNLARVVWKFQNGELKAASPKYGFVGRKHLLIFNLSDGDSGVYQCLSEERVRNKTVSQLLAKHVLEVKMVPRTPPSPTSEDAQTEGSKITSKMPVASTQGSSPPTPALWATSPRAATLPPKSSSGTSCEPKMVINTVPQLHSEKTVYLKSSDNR
Put plainly: FACS blocking; MusPlexin-B1-HEK293, FIG. 12E.

The target of test [4] is T2, full-length human CD100 protein HuCD100 …. In words: FACS; Jurkat cells.
For test [5], the target named is T1, HuCD100-Fc (in-house prepared). Put plainly: FACS blocking; blocking of binding to HuPlexin-B1-HEK293.
Another test addresses T4, MusCD100-His (mouse, UniProt O09126 24-733).
T4 chain: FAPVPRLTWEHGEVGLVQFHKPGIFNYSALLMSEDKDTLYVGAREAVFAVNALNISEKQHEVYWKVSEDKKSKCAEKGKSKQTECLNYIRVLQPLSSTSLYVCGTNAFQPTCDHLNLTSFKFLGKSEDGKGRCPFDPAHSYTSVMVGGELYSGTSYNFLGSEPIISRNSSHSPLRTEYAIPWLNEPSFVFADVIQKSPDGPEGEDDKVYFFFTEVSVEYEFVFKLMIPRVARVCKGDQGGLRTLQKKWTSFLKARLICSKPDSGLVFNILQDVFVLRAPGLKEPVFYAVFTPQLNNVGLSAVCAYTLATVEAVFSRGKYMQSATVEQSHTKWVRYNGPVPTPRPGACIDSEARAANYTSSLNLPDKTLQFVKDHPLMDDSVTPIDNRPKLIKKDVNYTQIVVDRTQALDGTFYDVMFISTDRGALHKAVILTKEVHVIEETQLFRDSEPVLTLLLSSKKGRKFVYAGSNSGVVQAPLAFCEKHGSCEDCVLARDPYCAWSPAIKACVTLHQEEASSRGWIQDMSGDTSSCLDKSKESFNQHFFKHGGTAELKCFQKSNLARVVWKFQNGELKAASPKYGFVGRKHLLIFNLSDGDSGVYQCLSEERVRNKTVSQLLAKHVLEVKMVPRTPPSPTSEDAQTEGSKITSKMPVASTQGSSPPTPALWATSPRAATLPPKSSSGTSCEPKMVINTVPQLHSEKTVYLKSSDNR
Put plainly: ELISA.

Test [6] has as its target T3, MusCD100-Fc. Put plainly: ELISA.
Another test has as its target HuCD100-His (human, UniProt Q92854 22-734). In words: ELISA.
For test [7], the target named is T1, HuCD100-Fc (in-house prepared). Put plainly: FACS blocking; HuPlexin-B2-HEK293, FIG. 12D.
For test [8] the target is unchanged. Put plainly: FACS blocking; HuPlexin-B1-HEK293, FIG. 12B.
Test [9] deals with T2, full-length human CD100 protein HuCD100 …. Put plainly: FACS. The source holds these as a separate data set.
Test [10] addresses T3, MusCD100-Fc. In words: FACS blocking; MusPlexin-B1-HEK293, FIG. 12F.
Test [11] has as its target T5, full-length mouse CD100 protein MusCD100 on cells (mouse, UniProt O09126 24-861).
T5 chain: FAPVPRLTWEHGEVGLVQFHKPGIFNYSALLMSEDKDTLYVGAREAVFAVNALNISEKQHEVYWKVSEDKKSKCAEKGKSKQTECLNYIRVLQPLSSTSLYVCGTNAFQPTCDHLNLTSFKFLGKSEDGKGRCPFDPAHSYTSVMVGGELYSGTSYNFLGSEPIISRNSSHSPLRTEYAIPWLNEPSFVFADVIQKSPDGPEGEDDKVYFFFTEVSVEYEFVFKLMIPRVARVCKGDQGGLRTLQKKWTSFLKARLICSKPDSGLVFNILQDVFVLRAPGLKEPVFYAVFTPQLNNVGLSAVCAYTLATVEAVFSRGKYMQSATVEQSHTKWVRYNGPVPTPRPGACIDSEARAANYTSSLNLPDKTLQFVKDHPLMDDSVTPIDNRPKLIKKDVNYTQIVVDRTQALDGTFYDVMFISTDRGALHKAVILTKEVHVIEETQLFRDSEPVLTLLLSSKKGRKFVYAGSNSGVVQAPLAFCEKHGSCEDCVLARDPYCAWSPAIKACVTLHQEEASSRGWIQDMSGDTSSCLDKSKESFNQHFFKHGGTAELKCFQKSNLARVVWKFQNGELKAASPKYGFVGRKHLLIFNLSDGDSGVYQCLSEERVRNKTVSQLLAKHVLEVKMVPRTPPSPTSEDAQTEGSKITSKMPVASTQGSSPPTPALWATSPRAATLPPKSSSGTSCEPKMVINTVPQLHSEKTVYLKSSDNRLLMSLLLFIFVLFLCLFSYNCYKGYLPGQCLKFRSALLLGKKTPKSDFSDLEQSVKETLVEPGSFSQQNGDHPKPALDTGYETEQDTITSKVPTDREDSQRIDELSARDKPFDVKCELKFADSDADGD
Put plainly: FACS.

For orientation: EC50 means the concentration giving half of the maximal effect. Lower therefore signals higher potency in that assay. What is called IC50 is the concentration needed to halve the response being measured. Low values mean greater potency, high ones weaker potency.

B1: Pepinemab (antibody, V domains shown)
VH: QVQLVQSGAEVKKPGSSVKVSCKASGYSFSDYYMHWVRQAPGQGLEWMGQINPTTGGASYNQKFKGKATITVDKSTSTAYMELSSLRSEDTAVYYCARYYYGRHFDVWGQGTTVTVSS
VL: DIVMTQSPDSLAVSLGERATINCKASQSVDYDGDSYMNWYQQKPGQPPKLLIYAASNLESGVPDRFSGSGSGTDFTLTISSLQAEDVAVYYCQQSNEDPYTFGQGTKLEIK
Turning to B1, the EC50 in the test with CynoCD100-HEK293 amounted to 0.132 nM; in [1], 0.0469 µg/mL; in [2], 0.608 nM; in [4], 0.275 nM; with MusCD100-His, 0.174 µg/mL; with MusCD100-Fc [6], 0.136 µg/mL. The concentration for a half-maximal effect (EC50) was found to be 0.0804 µg/mL in the test with HuCD100-His, 0.138 nM in test [9] and 0.276 nM in [11]. The IC50 with MusCD100-Fc [3] amounted to 4.08 nM; in test [5], 3.56 nM; in [7], 2.06 nM; in test [8], 1.31 nM; in the test with MusCD100-Fc [10] it was 5.44 nM.

The values above are taken from patent US20260028402A1 (published 2026).
